Test [1] has as its target LAMP1::histag (human) (UniProt P11279). The experiment in a line: SPR (BIAcore 2000).
For test [2] the target is unchanged. The experiment in a line: SPR (BIAcore 2000), mAb captured by anti-Fc, LAMP1 injected 1 to 256 nM.
Test [3] has the same target. The experiment in a line: competition ELISA; H4A3 0.06 mg/L read with anti-mouse IgG; competitor chMAb1 15 mg/L.
The target is the same in test [4]. Briefly: competition ELISA; H4A3 0.06 mg/L read with anti-mouse IgG; competitor chMAb2 15 mg/L. For orientation: In an ELISA, binding on a coated surface is turned into a signal by an enzyme label.
For test [5] the target is unchanged. The experiment in a line: competition ELISA; H4A3 0.06 mg/L read with anti-mouse IgG; competitor chMAb3 15 mg/L.

The values that follow come from US20180142032A1.

What is called Kd is the constant that tells how readily two partners part at equilibrium. Read a high Kd as weaker binding. Broadly, the koff is a measure of how fast the partners let go of each other. A low value points to slow dissociation. The kon is the second-order rate constant of association. Read a low kon as slow association.

Sequence of LAMP1::histag (human) (P11279 other isoform, or with tags, fused parts or gaps): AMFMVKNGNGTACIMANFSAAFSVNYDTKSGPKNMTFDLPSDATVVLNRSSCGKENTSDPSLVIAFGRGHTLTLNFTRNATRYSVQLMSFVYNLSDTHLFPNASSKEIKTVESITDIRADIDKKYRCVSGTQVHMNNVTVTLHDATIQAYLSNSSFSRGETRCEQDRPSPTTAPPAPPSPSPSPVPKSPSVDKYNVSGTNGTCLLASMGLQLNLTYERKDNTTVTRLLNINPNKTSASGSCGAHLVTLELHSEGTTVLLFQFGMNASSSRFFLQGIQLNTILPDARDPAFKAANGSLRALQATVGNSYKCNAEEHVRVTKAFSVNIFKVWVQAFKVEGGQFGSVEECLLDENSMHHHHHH

With H4A3 (BioLegend 328602) (antibody), the Kd stood at 100 nM with LAMP1::histag (human) [1] and 105 nM with LAMP1::histag (human) [2]. Besides, the koff with LAMP1::histag (human) [2] is 0.00609 s⁻¹. For the same substance, in the test with LAMP1::histag (human) [2], the kon turned out to be 58000 M⁻¹ s⁻¹. The percentage of signal compared to mAb control alone was found to be 98% in the test with LAMP1::histag (human) [3], 57% with LAMP1::histag (human) [4] and 11% in the test with LAMP1::histag (human) [5].
